This is an account of results in patent US10772928B2, “Modulation and detection of a neuronal alternative splicing regulatory network for treatment and diagnosis of neurological disorders” (The Governing Council of the University of Toronto, priority 2014, dated 2020).

For this test, the target named is T1, nSR100 (Mus musculus, UniProt Q8BKA3).
T1 construct: host or cells: mouse N2A cells
T1 sequence (Q8BKA3 1-608): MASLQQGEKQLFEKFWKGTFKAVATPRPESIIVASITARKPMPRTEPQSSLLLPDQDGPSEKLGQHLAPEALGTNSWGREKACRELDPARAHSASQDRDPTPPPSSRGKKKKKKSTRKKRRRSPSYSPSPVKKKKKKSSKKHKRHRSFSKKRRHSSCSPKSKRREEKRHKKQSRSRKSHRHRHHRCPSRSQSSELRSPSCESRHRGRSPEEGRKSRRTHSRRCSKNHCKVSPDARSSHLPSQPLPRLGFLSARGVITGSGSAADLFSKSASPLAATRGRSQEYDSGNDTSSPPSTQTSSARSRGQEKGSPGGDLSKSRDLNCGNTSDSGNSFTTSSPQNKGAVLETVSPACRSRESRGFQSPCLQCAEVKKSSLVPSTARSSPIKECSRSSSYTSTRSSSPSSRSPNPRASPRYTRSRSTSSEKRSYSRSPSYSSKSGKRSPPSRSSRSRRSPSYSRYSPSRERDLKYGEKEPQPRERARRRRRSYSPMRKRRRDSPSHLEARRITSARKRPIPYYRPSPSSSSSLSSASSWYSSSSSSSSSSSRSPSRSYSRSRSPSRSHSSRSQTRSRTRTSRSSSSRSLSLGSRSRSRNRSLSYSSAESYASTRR
Briefly: AP-MS nSR100 interaction partners from mouse N2A cells (Table 5). The test is classed as binding. To be noted: for AvgP (average of the SAINT scores) / MaxP (maximal SAINT score): bait Srrm4; for FoldChange between the prey Avg spectra of the bait and control purifications: bait Srrm4, 0.1 added to prevent division by 0; for AvgSpec (average number of spectra per replicate): bait Srrm4, 2 replicates; for Spectra (number of spectra for the prey in the purification of the bait): AP-MS; for SpecSum: bait Srrm4, sum of spectra over 2 replicates.

Where [1] appears, read: bait Srrm4, biological replicate 1 (first number of the cell).
Where [2] appears, read: bait Srrm4, biological replicate 2 (second number of the cell).

Description: By applying affinity purification coupled to mass-spectrometry (AP-MS), several interaction nSR100 partner proteins were detected that provide insight into mechanisms of post-translational regulation of nSR100 levels.

B1: Luc7l (protein, UniProt Q9CYI4 1-371, looked up)
Putative RNA-binding protein …: MSAQAQMRALLDQLMGTARDGDETRQRVKFTDDRVCKSHLLDCCPHDILAGTRMDLGECTKIHDLALRADYEIASKERDLFFELDAMDHLESFIAECDRRTELAKKRLAETQEEISAEVSAKAEKVHELNEEIGKLLAKAEQLGAEGNVDESQKILMEVEKVRAKKKEAEEEYRNSMPASSFQQQKLRVCEVCSAYLGLHDNDRRLADHFGGKLHLGFIQIREKLDQLRKTVAEKQEKRNQDRLRRREEREREERLGRRSGSRTRDRRRSRSRDRRRRRSRSTSRERRKFSRSRSRDRYRRHRSRSRSHSRGHRRASRDRSTKYKFSRERSLREESWEYGRNERGPTDWRLENSNGKTASRRSEEKEAGEI
B1: the “AvgP (average of the SAINT scores)” value is reported as 0.95; the “MaxP (maximal SAINT score)” value is on record as 0.99; the “FoldChange between the prey Avg spectra of the bait and control purifications” value (from here on “FoldChange between the prey Avg spectra”) is recorded as 3.17; the “AvgSpec (average number of spectra per replicate)” value is listed as 19. Moreover, the SpecSum was 38. Under setting [1], the “Spectra (number of spectra for the prey in the purification of the bait)” value was found to be 18. Under setting [2], the “Spectra (number of spectra for the prey in the purification of the bait)” value was 20.

B2: Crnkl1 (protein, UniProt P63154 1-690, looked up)
Crooked neck-like protein 1: MAASTAAGKQRIPKVAKVKNKAPAEVQITAEQLLREAKERELELLPPPPQQKITDEEELNDYKLRKRKTFEDNIRKNRTVISNWIKYAQWEESLKEIQRARSIYERALDVDYRNITLWLKYAEMEMKNRQVNHARNIWDRAITTLPRVNQFWYKYTYMEEMLGNVAGARQVFERWMEWQPEEQAWHSYINFELRYKEVERARTIYERFVLVHPAVKNWIKYARFEEKHAYFAHARKVYERAVEFFGDEHMDEHLYVAFAKFEENQKEFERVRVIYKYALDRISKQEAQELFKNYTIFEKKFGDRRGIEDIIVSKRRFQYEEEVKANPHNYDAWFDYLRLVESDAEADTVREVYERAIANVPPIQEKRHWKRYIYLWVNYALYEELEAKDPERTRQVYQASLELIPHKKFTFAKMWLYYAQFEIRQKNLPFARRALGTSIGKCPKNKLFKGYIELELQLREFDRCRKLYEKFLEFGPENCTSWIKFAELETILGDIERARAIYELAISQPRLDMPEVLWKSYIDFEIEQEETERTRNLYRQLLQRTQHVKVWISFAQFELSSGKEGSVAKCRQIYEEANKTMRNCEEKEERLMLLESWRSFEDEFGTVSDKERVDKLMPEKVKKRRKVQADDGSDAGWEEYYDYIFPEDAANQPNLKLLAMAKLWKKQQQEREAAEQDPDKDIDESESSSF
In the case of B2, the “AvgP (average of the SAINT scores)” value came to 0.95; the “MaxP (maximal SAINT score)” value is 0.95; the “FoldChange between the prey Avg spectra” value is listed as 20; the “AvgSpec (average number of spectra per replicate)” value stood at 2. Moreover, the SpecSum was 4. Also, the “Spectra (number of spectra for the prey in the purification of the bait)” value under setting [1] is recorded as 2|2. Besides, the “Spectra (number of spectra for the prey in the purification of the bait)” value under setting [2] is 2|2.

B3: Rbmx2 (protein, UniProt Q8R0F5 1-326, looked up)
RNA-binding motif protein, …: MNPLTKVKLINELNEREVQLGVAEKVSWHSEYKHSAWIFVGGLPYELTEGDIICVFSQYGEIVNINLVRDKKTGKSKGFCFLCYEDQRSTVLAVDNFNGIKIKGRTIRVDHVSNYRAPQESEDVDDVTRELQEKGCGVKTPPSSPPEVSEDEDAKLTKKHKKDKKEKKKRKKEKTEGQAQAEQPSCSRSATVKEKKDERASRKHSSKTSERAQKSEHRESKKSHSGSPDGRSSYHARAEDPECKARKEKPKHEHKSASRREAEEKSRERERGRSSGTHSGRHRGHSDGRSHRSRSRSRSPDKSHRHKKYRHSRERDSYHGSDRRHH
On to B3, for which the “AvgP (average of the SAINT scores)” value is 0.96; the “MaxP (maximal SAINT score)” value is recorded as 0.98; the “FoldChange between the prey Avg spectra” value was 9; the “AvgSpec (average number of spectra per replicate)” value is reported as 4.5. This molecule gave a SpecSum of 9. Besides, the “Spectra (number of spectra for the prey in the purification of the bait)” value under setting [1] is on record as 4. Under setting [2], the “Spectra (number of spectra for the prey in the purification of the bait)” value is recorded as 5.

B4: Smc3 (protein, UniProt Q9CW03 1-1217, looked up)
Structural maintenance of …: MYIKQVIIQGFRSYRDQTIVDPFSSKHNVIVGRNGSGKSNFFYAIQFVLSDEFSHLRPEQRLALLHEGTGPRVISAFVEIIFDNSDNRLPIDKEEVSLRRVIGAKKDQYFLDKKMVTKNDVMNLLESAGFSRSNPYYIVKQGKINQMATAPDSQRLKLLREVAGTRVYDERKEESISLMKETEGKREKINELLKYIEERLHTLEEEKEELAQYQKWDKMRRALEYTIYNQELNETRAKLDELSAKRETSGEKSRQLRDAQQDARDKMEDIERQVRELKTKISAMKEEKEQLSAERQEQIKQRTKLELKAKDLQDELAGNSEQRKRLLKERQKLLEKIEEKQKELAETEPKFNSVKEKEERGIARLAQATQERTDLYAKQGRGSQFTSKEERDKWIKKELKSLDQAINDKKRQIAAIHKDLEDTEANKEKNLEQYNKLDQDLNEVKARVEELDRKYYEVKNKKDELQSERNYLWREENAEQQALAAKREDLEKKQQLLRAATGKAILNGIDSINKVLEHFRRKGINQHVQNGYHGIVMNNFECEPAFYTCVEVTAGNRLFYHIVDSDEVSTKILMEFNKMNLPGEVTFLPLNKLDVRDTAYPETNDAIPMISKLRYNPRFDKAFKHVFGKTLICRSMEVSTQLARAFTMDCITLEGDQVSHRGALTGGYYDTRKSRLELQKDVRKAEEELGELEAKLNENLRRNIERINNEIDQLMNQMQQIETQQRKFKASRDSILSEMKMLKEKRQQSEKTFMPKQRSLQSLEASLHAMESTRESLKAELGTDLLSQLSLEDQKRVDALNDEIRQLQQENRQLLNERIKLEGIITRVETYLNENLRKRLDQVEQELNELRETEGGTVLTATTSELEAINKRVKDTMARSEDLDNSIDKTEAGIKELQKSMERWKNMEKEHMDAINHDTKELEKMTNRQGMLLKKKEECMKKIRELGSLPQEAFEKYQTLSLKQLFRKLEQCNTELKKYSHVNKKALDQFVNFSEQKEKLIKRQEELDRGYKSIMELMNVLELRKYEAIQLTFKQVSKNFSEVFQKLVPGGKATLVMKKGDVEGSQSQDEGEGSGESERGSGSQSSVPSVDQFTGVGIRVSFTGKQGEMREMQQLSGGQKSLVALALIFAIQKCDPAPFYLFDEIDQALDAQHRKAVSDMIMELAVHAQFITTTFRPELLESADKFYGVKFRNKVSHIDVITAEMAKDFVEDDTTHG
Regarding B4, the “AvgP (average of the SAINT scores)” value is 0.91; the “MaxP (maximal SAINT score)” value is given as 0.96; the “FoldChange between the prey Avg spectra” value was 7; the “AvgSpec (average number of spectra per replicate)” value came out at 7. This molecule showed a SpecSum of 14. Besides, the “Spectra (number of spectra for the prey in the purification of the bait)” value under setting [1] is recorded as 6. The “Spectra (number of spectra for the prey in the purification of the bait)” value under setting [2] was 8.

B5: Csnk1e (protein, UniProt Q9JMK2 1-416, looked up)
Casein kinase I isoform …: MELRVGNKYRLGRKIGSGSFGDIYLGANIASGEEVAIKLECVKTKHPQLHIESKFYKMMQGGVGIPSIKWCGAEGDYNVMVMELLGPSLEDLFNFCSRKFSLKTVLLLADQMISRIEYIHSKNFIHRDVKPDNFLMGLGKKGNLVYIIDFGLAKKYRDARTHQHIPYRENKNLTGTARYASINTHLGIEQSRRDDLESLGYVLMYFNLGSLPWQGLKAATKRQKYERISEKKMSTPIEVLCKGYPSEFSTYLNFCRSLRFDDKPDYSYLRQLFRNLFHRQGFSYDYVFDWNMLKFGAARNPEDVDRERREHEREERMGQLRGSATRALPPGPPTGATANRLRSAAEPVASTPASRIQQTGNTSPRAISRADRERKVSMRLHRGAPANVSSSDLTGRQEVSRLAASQTSVPFDHLGK
For the molecule B5, the “AvgP (average of the SAINT scores)” value is reported as 0.91; the “MaxP (maximal SAINT score)” value stood at 0.96; the “FoldChange between the prey Avg spectra” value came to 7; the “AvgSpec (average number of spectra per replicate)” value was 7. The same molecule returned a SpecSum of 14. In addition, the “Spectra (number of spectra for the prey in the purification of the bait)” value under setting [1] was determined as 6. Besides, the “Spectra (number of spectra for the prey in the purification of the bait)” value under setting [2] is given as 8.

B6: Prpf19 (protein, UniProt Q99KP6 2-504, looked up)
Pre-mRNA-processing factor 19: SLICSISNEVPEHPCVSPVSNHVYERRLIEKYIAENGTDPINNQPLSEEQLIDIKVAHPIRPKPPSATSIPAILKALQDEWDAVMLHSFTLRQQLQTTRQELSHALYQHDAACRVIARLTKEVTAAREALATLKPQAGLIVPQAVPSSQPSVVGAGEPMDLGELVGMTPEIIQKLQDKATVLTTERKKRGKTVPEELVKPEELSKYRQVASHVGLHSASIPGILALDLCPSDTNKILTGGADKNVVVFDKSTEQILATLKGHTKKVTSVVFHPSQELVFSASPDATIRIWSVPNTSCVQVVRAHESAVTGLSLHATGDYLLSSSDDQYWAFSDIQTGRVLTKVTDETSGCSLTCAQFHPDGLIFGTGTMDSQIKIWDLKERTNVANFPGHSGPITSIAFSENGYYLATAADDSSVKLWDLRKLKNFKTLQLDNNFEVKSLIFDQSGTYLALGGTDVQIYICKQWTEILHFTEHSGLTTGVAFGHHAKFIASTGMDRSLKFYSL
As for B6, the “AvgP (average of the SAINT scores)” value was determined as 0.91; the “MaxP (maximal SAINT score)” value is listed as 1; the “FoldChange between the prey Avg spectra” value is recorded as 5.71; the “AvgSpec (average number of spectra per replicate)” value was 20. Also, the SpecSum is 40. In addition, the “Spectra (number of spectra for the prey in the purification of the bait)” value under setting [1] is listed as 11. Also, the “Spectra (number of spectra for the prey in the purification of the bait)” value under setting [2] amounted to 29.
